{"source": "paper PMC6315291", "target": "Recombinant human Pentraxin 3 (PTX3) (human) (UniProt P26022)", "sequence (P26022 18-381)": "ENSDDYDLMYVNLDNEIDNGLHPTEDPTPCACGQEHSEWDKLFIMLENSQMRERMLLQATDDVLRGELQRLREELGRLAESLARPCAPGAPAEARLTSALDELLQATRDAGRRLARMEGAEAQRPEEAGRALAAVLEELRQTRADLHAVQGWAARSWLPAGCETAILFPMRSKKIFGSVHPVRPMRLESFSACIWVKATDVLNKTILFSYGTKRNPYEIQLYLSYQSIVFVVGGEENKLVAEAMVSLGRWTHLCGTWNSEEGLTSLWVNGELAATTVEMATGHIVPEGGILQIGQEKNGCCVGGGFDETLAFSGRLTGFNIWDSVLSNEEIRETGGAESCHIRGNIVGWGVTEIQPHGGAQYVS", "experiment": "ELISA", "data": [{"substance": "Human TSP1 construct E123CaG-1 (type II repeats plus type III repeats and globular C-terminus) (domain or fragment)", "values": [{"measurement": "increase of OD 450 nm over control buffer (% fold increase)", "result": 64}]}]}
